Consider five molecules from paper PMC5790014, “Type IX secretion system PorM and gliding machinery GldM form arches spanning the periplasmic space” (Nature Communications, 2018).

Data set [1] concerns the molecule itself. As to the kind of experiment: crystal structure; PorMp224; 0.02 M sodium acetate pH 4.8-5.8, 0.2 M zinc acetate, 15-25% (w/v) PEG3350; 2.85 Å.
Data set [2] deals with the molecule itself. The data set can be described thus: crystal structure; PorMp315/nb130, 1/1 complex at 10 mg/mL; 0.2 M ammonium citrate tribasic pH 7.0, 20% (w/v) PEG3350; 2.1 Å.
The target of data set [3] is T1, PorMp315 (PorM periplasmic fragment, domains D3 and D4 in the crystal) (Porphyromonas gingivalis, UniProt B2RLE8).
T1 construct: PorM, Porphyromonas gingivalis, GI 188595218; cloned as residues 224-516, domain D2 was cleaved by a protease during crystallization, the structure spans residues 315-516; Construct cloned as 224-516 (pLIC03); the crystallised species is 315-516
The data set is described as above. The following applies: both partners purified.

Data set [4] deals with the molecule itself. As to the kind of experiment: crystal structure; GldMp; sitting-drop vapor diffusion at 293K; 0.1 M Hepes pH 7-8, 26-46% (w/v) PEG 600; 2 Å.
Data set [5] deals with T2, PorMpNt (N-terminal domain D1 of the PorM periplasmic domain) (Porphyromonas gingivalis (sequence …)).
T2 construct: PorM, Porphyromonas gingivalis, GI 188595218, N-terminal domain D1; residues 30-212 by the results, residues 44-217 by the methods; the first helix (residues 30-69) is missing in the crystal, probably cleaved during crystallization; also called PorMNt
The data set can be described thus: crystal structure; PorMNt/nb01, 1/1 complex at 10 mg/mL; 0.1 M Hepes pH 7.5, 0.2 M NaCl, 25% (w/v) PEG3350; 2.4 Å. As to conditions: both partners purified.

B1: PorMp224 (PorM periplasmic fragment, residues 224-516) (domain or fragment)
chain: RVNSITAQVIPQSQIVMSGDTYKANIVLSSVDTTQRPDVFVNGKLLSPENMGLFTATAGAPGTYPVKGYIEMMGNDGVKIRRDFESEYFVTEPMASVAPTMMNVLYAGIDNPINIAVPGVAQQNVSATINNGTLTRRGNLWIARPTKVGSEAIISVTAQSGGRTIQMAKTTLRVRALPDPLPYIEYKDVQGNTKRFKGGRLGKREILAAGGIKAALDDDLLEVNYTVVKFQLVFYDSMGNSIPEVSDGASFSERQKRQIQNLGKGKRFYVTEVIARGPDGIERKIPAIEVIVN
notes: PorM, Porphyromonas gingivalis, GI 188595218, tryptic fragment of the periplasmic domain, residues 224-516 (domains D2-D4); source: trypsin cleavage of PorMp (made in Rosetta E. coli cells), fragment purified
For B1, in data set [1], the binding result is “binds”.

B2: PorMp315 (PorM periplasmic fragment, domains D3 and D4 in the crystal) (domain or fragment, Porphyromonas gingivalis, UniProt B2RLE8 315-516, looked up)
chain: EPMASVAPTMMNVLYAGIDNPINIAVPGVAQQNVSATINNGTLTRRGNLWIARPTKVGSEAIISVTAQSGGRTIQMAKTTLRVRALPDPLPYIEYKDVQGNTKRFKGGRLGKREILAAGGIKAALDDDLLEVNYTVVKFQLVFYDSMGNSIPEVSDGASFSERQKRQIQNLGKGKRFYVTEVIARGPDGIERKIPAIEVIVN
notes: PorM, Porphyromonas gingivalis, GI 188595218; cloned as residues 224-516, domain D2 was cleaved by a protease during crystallization, the structure spans residues 315-516; Construct cloned as 224-516 (pLIC03); the crystallised species is 315-516
For the molecule B2, the binding result in data set [2] is “binds”.

B3: nanobody nb130 (VHH)
VHH: QVQLVESGGGLVQAGGSLRLSCAASGRTFSSYVMGWFRQAPGKEREFVTAISWSGGSIHYADSVKGRFTISRDNAKNTVYLQMNSLKPEDTAVYTCVAGFAGYGSFTSRSARDSDKYDYWGQGTKVTVSS
notes: llama nanobody raised against PorMp; source: E. coli WK6, periplasmic fraction, purified (Ni-NTA, Superdex 75)
B3: the binding result in data set [3] is “binds”.

B4: GldM periplasmic domain (GldMp) (domain or fragment, Flavobacterium johnsoniae, UniProt Q5EGM3 36-513, looked up)
chain: FGLMNEKFEAANTSSVTTNESLLTSLDQKAAEAKGEFAKAAETAHKVQAASKEFYDYIGTLKTQAVKGFEVDKETGKMPYEAMDRGDNIDDWFTGDGYTKKGNEIIAKIEKYKSDIKAALGTDKKYAGIISEVEKKFDVSDVKNKEGIKEKYLAYHFKGFPAIASAAKLSAWQNDVKKTEADVYNSALGKAAVAAASYSNYQAIVVLDKNAYFQGEKVTGKVVLGRYDENTKPTSFQGPGQIVNGQAVISLTAGGVGEQDINGQFTFLEDGKNIPLKFSGKYVVVPRPNSATISADKMNVVYRGVVNPISVSFAGVDANKIVASAPGLSSAGKPGKYNMSPGQGTEATISVTGTLPNGDKVTDKKTFRIKGIPGPTGTIRGEMGVVKGPKSNLEIATIGAKLLDFDFEVGLDVVGFNMKIAGQPTVVVTGNKMNAQCKSVLARAGKGDQVTISEIKTKLVGAGSYLLPRTAPVIYEIQ
notes: GldM, Flavobacterium johnsoniae (ATCC17061), GI 58531935, periplasmic domain, residues 36-513; Cloned into pLIC03 (a pET28a+ derivative); A SeMet derivative was used for phasing
As usually defined, the stoichiometry N is a count of units in the complex or per binding partner. B4: the “stoichiometry N” value in data set [4] came to 2.

B5: nanobody nb01 (VHH)
VHH: DVQLVESGGGLVQAGGSLRVSCAASGRTFSSYSMGWFRQAPGKEREFVAAISRSDNSTYYADSVKGRFTISRDSAKNTVYLQMNSLKPEDTAVYYCAATPYGSRYYLRELREYDYWGQGTQVTVSS
notes: as for B3
In the case of B5, the binding result in data set [5] was “binds”.
